This data set concerns the molecule itself. Description: cryo-EM structure; single-particle cryo-EM of purified SOS1 in 20 mM HEPES pH 7.5, 150 mM NaCl, 5 mM β-ME, 0.007% GDN; two conformations (SOS1 at 2.8 Å, SOS1^expand at 3.4 Å).

B1: Arabidopsis thaliana Salt-overly-sensitive 1 (SOS1), full-length wild type (natural protein, UniProt Q9LKW9 1-1146, looked up)
chain: MTTVIDATMAYRFLEEATDSSSSSSSSKLESSPVDAVLFVGMSLVLGIASRHLLRGTRVPYTVALLVIGIALGSLEYGAKHNLGKIGHGIRIWNEIDPELLLAVFLPALLFESSFSMEVHQIKRCLGQMVLLAVPGVLISTACLGSLVKVTFPYEWDWKTSLLLGGLLSATDPVAVVALLKELGASKKLSTIIEGESLMNDGTAIVVFQLFLKMAMGQNSDWSSIIKFLLKVALGAVGIGLAFGIASVIWLKFIFNDTVIEITLTIAVSYFAYYTAQEWAGASGVLTVMTLGMFYAAFARTAFKGDSQKSLHHFWEMVAYIANTLIFILSGVVIAEGILDSDKIAYQGNSWRFLFLLYVYIQLSRVVVVGVLYPLLCRFGYGLDWKESIILVWSGLRGAVALALSLSVKQSSGNSHISKETGTLFLFFTGGIVFLTLIVNGSTTQFVLRLLRMDILPAPKKRILEYTKYEMLNKALRAFQDLGDDEELGPADWPTVESYISSLKGSEGELVHHPHNGSKIGSLDPKSLKDIRMRFLNGVQATYWEMLDEGRISEVTANILMQSVDEALDQVSTTLCDWRGLKPHVNFPNYYNFLHSKVVPRKLVTYFAVERLESACYISAAFLRAHTIARQQLYDFLGESNIGSIVINESEKEGEEAKKFLEKVRSSFPQVLRVVKTKQVTYSVLNHLLGYIENLEKVGLLEEKEIAHLHDAVQTGLKKLLRNPPIVKLPKLSDMITSHPLSVALPPAFCEPLKHSKKEPMKLRGVTLYKEGSKPTGVWLIFDGIVKWKSKILSNNHSLHPTFSHGSTLGLYEVLTGKPYLCDLITDSMVLCFFIDSEKILSLQSDSTIDDFLWQESALVLLKLLRPQIFESVAMQELRALVSTESSKLTTYVTGESIEIDCNSIGLLLEGFVKPVGIKEELISSPAALSPSNGNQSFHNSSEASGIMRVSFSQQATQYIVETRARAIIFNIGAFGADRTLHRRPSSLTPPRSSSSDQLQRSFRKEHRGLMSWPENIYAKQQQEINKTTLSLSERAMQLSIFGSMVNVYRRSVSFGGIYNNKLQDNLLYKKLPLNPAQGLVSAKSESSIVTKKQLETRKHACQLPLKGESSTRQNTMVESSDEEDEDEGIVVRIDSPSKIVFRNDL
notes: Arabidopsis thaliana SOS1 Na+/H+ antiporter, ecotype Columbia (Col-0) cDNA, 1146 residues; model holds residues 32-972, 1007-1017 and 1030-1048; Eluate was incubated with PreScission protease for 3 h before SEC; residues of the protease site may remain at the C-terminus; also called AtSOS1; SOS1-ClassII; source: HEK293F cells (Bac-to-Bac baculovirus, pEG-BacMam), purified (Streptactin beads, …)
On to B1, for which the stoichiometry N (as a rule, the number of molecules, sites or subunits per partner or assembly) worked out at 2.

The values above are taken from PMC10372031, “Architecture and autoinhibitory mechanism of the plasma membrane Na^+/H^+ antiporter SOS1 in Arabidopsis” (Nature Communications, 2023).
